The source of these data is the Immune Epitope Database (IEDB).

Bounds are passed on as bounds.

One experiment deals with HLA-B*39:01. Nature of the experiment: IEDB peptide-MHC binding, purified MHC/competitive/fluorescence; filed as Kd, often an IC50 or EC50 that approximates it; ≥ and ≤ were set here for values at or beyond the usual limits of such assays.
A further experiment addresses HLA-A*26:02. The experiment is described as above. Particulars: source organism: Human immunodeficiency virus 1.
Experiment [1] deals with HLA-A*68:02. The description is as above. Particulars: source organism: Human immunodeficiency virus 1.
Experiment [2] deals with HLA-A*02:01. The experiment is described as above.
The target of a further experiment is HLA-B*18:01. Described as above.
The target in experiment [3] is HLA-B*15:01. Described as above.
A further experiment addresses HLA-B*15:17. Described as above.
Another experiment deals with HLA-B*51:01. The experiment is described as above.
A further experiment deals with HLA-B*46:01. Described as above.
The target of the next experiment is HLA-B*57:01. The experiment is described as above.
The next experiment has as its target HLA-A*26:01. The experiment is described as above.
In another experiment the target is HLA-A*69:01. The description is as above.
The next experiment has as its target HLA-B*27:03. The description is as above.
Experiment [4] has as its target HLA-A*03:01. Nature of the experiment: IEDB peptide-MHC binding, purified MHC/direct/fluorescence; filed as Kd, often an IC50 or EC50 that approximates it; ≥ and ≤ were set here for values at or beyond the usual limits of such assays.
Another experiment concerns the target HLA-A*23:01. The experiment is described as above.
A further experiment addresses HLA-A*24:03. The experiment is described as above.
A further experiment concerns the target HLA-A*29:02. The experiment is described as above.
For experiment [5], the target named is HLA-A*02:01. The experiment is described as above. Particulars: source organism: Sudan ebolavirus - Maleo (1979).
The next experiment has as its target HLA-A*24:02. Nature of the experiment: IEDB peptide-MHC binding, purified MHC/competitive/fluorescence; ≥ and ≤ were set here for values at or beyond the usual limits of such assays.
Another experiment deals with HLA-B*07:02. Described as above.
A further experiment has as its target HLA-A*02:19. In words: IEDB peptide-MHC binding, purified MHC/direct/fluorescence; filed as Kd, often an IC50 or EC50 that approximates it; ≥ and ≤ were set here for values at or beyond the usual limits of such assays.
Another experiment concerns the target HLA-A*02:12. Described as above.
For a further experiment, the target named is HLA-A*02:11. The experiment is described as above.
A further experiment addresses HLA-A*02:16. Described as above.
The target of experiment [6] is HLA-A*02:03. Described as above.
Experiment [7] deals with HLA-A*68:02. The experiment is described as above.
The next experiment addresses HLA-A*01:01. Described as above.
The next experiment addresses HLA-B*08:01. The description is as above. Particulars: source organism: Rio Mamore hantavirus.
For experiment [8], the target named is HLA-B*15:01. Nature of the experiment: IEDB peptide-MHC binding, purified MHC/competitive/fluorescence; ≥ and ≤ were set here for values at or beyond the usual limits of such assays.
In experiment [9] the target is HLA-A*02:01. The description is as above.
The next experiment has as its target HLA-A*11:01. The description is as above.
Experiment [10] deals with HLA-A*03:01. The description is as above.
For experiment [11], the target named is HLA-A*02:03. In words: IEDB peptide-MHC binding, purified MHC/competitive/fluorescence; filed as Kd, often an IC50 or EC50 that approximates it; ≥ and ≤ were set here for values at or beyond the usual limits of such assays. To be noted: source organism: Human immunodeficiency virus 1.
Where [12] appears, read: source organism: Human immunodeficiency virus 1.
Where [13] appears, read: source organism: Zaire ebolavirus.
[14] abbreviates: source organism: Sudan ebolavirus.
Setting [15] is: source organism: Ravn virus - Ravn, Kenya, 1987.
Where [16] appears, read: source organism: Lechiguanas virus.
[17] abbreviates: source organism: Limestone Canyon virus.
Setting [18] is: source organism: Reston ebolavirus.
[19] abbreviates: source organism: Vaccinia virus.

With DIKDTKEAL, the Kd is not below 20 µM with HLA-B*39:01 (setting [12]), not below 20 µM with HLA-A*26:02, 1.7 µM with HLA-A*68:02 [1] and not below 20 µM with HLA-A*02:01 [2] (setting [12]).
For the sequence SMHYKLDEV, the dissociation constant (Kd) with HLA-B*39:01 (setting [13]), with HLA-B*18:01 (setting [13]), in the experiment with HLA-B*15:01 [3] (setting [13]), with HLA-B*15:17 (setting [13]), with HLA-B*51:01 (setting [13]) and in the experiment with HLA-B*46:01 (setting [13]) was not below 20 µM throughout. The Kd with HLA-B*57:01 (setting [13]), with HLA-A*26:01 (setting [13]), in the experiment with HLA-A*69:01 (setting [13]), with HLA-B*27:03 (setting [13]), with HLA-A*03:01 [4] (setting [13]) and with HLA-A*23:01 (setting [13]) was not below 20 µM in each case. Further, the Kd with HLA-A*24:03 (setting [13]) is not below 20 µM; with HLA-A*29:02 (setting [13]), not below 20 µM; with HLA-A*02:01 [5] it was 0.0151 µM.
Turning to RPHTPQFLF, the IC50 worked out at 1.03 µM in the experiment with HLA-A*24:02 (setting [14]) and 1.46 µM with HLA-B*07:02 (setting [14]).
In the case of DLEKYNLAF, the Kd with HLA-B*39:01 (setting [13]), in the experiment with HLA-B*18:01 (setting [13]), with HLA-B*15:01 [3] (setting [13]), with HLA-B*15:17 (setting [13]), in the experiment with HLA-B*51:01 (setting [13]) and in the experiment with HLA-B*46:01 (setting [13]) was not below 20 µM in each case. The equilibrium dissociation constant (Kd) with HLA-B*57:01 (setting [13]), with HLA-A*26:01 (setting [13]), in the experiment with HLA-A*69:01 (setting [13]), in the experiment with HLA-B*27:03 (setting [13]), with HLA-A*02:01 [2] (setting [13]) and in the experiment with HLA-A*02:19 (setting [15]) was not below 20 µM throughout. Further, the equilibrium dissociation constant (Kd) with HLA-A*03:01 [4] (setting [15]), with HLA-A*23:01 (setting [15]), with HLA-A*02:12 (setting [15]), with HLA-A*02:11 (setting [15]), with HLA-A*02:16 (setting [15]) and with HLA-A*24:03 (setting [15]) was not below 20 µM each time. The Kd with HLA-A*02:03 [6] (setting [15]), with HLA-A*68:02 [7] (setting [15]), with HLA-A*29:02 (setting [15]) and in the experiment with HLA-A*01:01 (setting [13]) was not below 20 µM throughout.
Sequence TPSATTAAG showed a half-inhibitory concentration (IC50) in the experiment with HLA-B*07:02 (setting [13]) not below 144 µM.
For KLKSVGKAY, the Kd with HLA-B*39:01 (setting [16]), with HLA-B*18:01 (setting [16]), with HLA-B*51:01 (setting [16]), with HLA-B*57:01 (setting [16]), in the experiment with HLA-A*26:01 (setting [16]) and in the experiment with HLA-A*69:01 (setting [16]) was not below 20 µM throughout. The Kd in the experiment with HLA-B*27:03 (setting [16]) was not below 20 µM; with HLA-A*02:01 [2] (setting [16]) it was not below 20 µM; with HLA-A*02:19 (setting [17]) it was not below 20 µM; in the experiment with HLA-A*03:01 [4] (source organism: Rio Mamore hantavirus), 0.536 µM; with HLA-A*02:12 (setting [17]) it was not below 20 µM; in the experiment with HLA-A*02:11 (setting [17]) it was not below 20 µM. The Kd with HLA-A*02:16 (setting [17]), in the experiment with HLA-A*24:03 (setting [17]), with HLA-B*08:01, with HLA-A*02:03 [6] (setting [17]), in the experiment with HLA-A*68:02 [7] (setting [17]) and in the experiment with HLA-A*29:02 (setting [17]) was not below 20 µM throughout.
Take FIHIPGDTL: the values for the IC50 with HLA-B*15:01 [8] (source organism: Variola virus), with HLA-B*07:02 (source organism: Variola virus) and in the experiment with HLA-A*02:01 [9] (source organism: Variola virus) were not below 80.7 µM, 47 µM and 2.55 µM, respectively.
As for TLRKERLAK, the IC50 with HLA-A*11:01 (setting [13]) is 4.25 µM; in the experiment with HLA-A*03:01 [10] (setting [13]), 0.509 µM; in the experiment with HLA-B*15:01 [8] (setting [13]), not below 171 µM; in the experiment with HLA-B*07:02 (setting [13]), not below 119 µM.
In the case of TTDDSTSYY, the Kd with HLA-B*39:01 (setting [18]), with HLA-B*18:01 (setting [18]), with HLA-B*15:01 [3] (setting [18]), in the experiment with HLA-B*15:17 (setting [18]), with HLA-B*51:01 (setting [18]) and with HLA-B*46:01 (setting [18]) was not below 20 µM each time. Besides, the Kd with HLA-B*57:01 (setting [18]), in the experiment with HLA-A*26:01 (setting [18]), with HLA-A*69:01 (setting [18]), with HLA-B*27:03 (setting [18]), with HLA-A*02:01 [2] (setting [18]) and with HLA-A*02:19 (setting [18]) was not below 20 µM throughout. The Kd in the experiment with HLA-A*03:01 [4] (setting [18]), in the experiment with HLA-A*23:01 (setting [18]), with HLA-A*02:12 (setting [18]), with HLA-A*02:11 (setting [18]), in the experiment with HLA-A*02:16 (setting [18]) and with HLA-A*24:03 (setting [18]) was not below 20 µM throughout. Moreover, the Kd was not below 20 µM in the experiment with HLA-A*02:03 [6] (setting [18]), not below 20 µM in the experiment with HLA-A*68:02 [7] (setting [18]) and 0.0122 µM with HLA-A*01:01 (source organism: Reston ebolavirus - Reston).
For YIKNIGNTK, the IC50 is 30.5 µM with HLA-A*11:01 (setting [19]), 6.51 µM with HLA-A*03:01 [10] (setting [19]) and not below 745 µM with HLA-B*07:02 (setting [19]).
With TGFGTNETE, in the experiment with HLA-B*07:02 (setting [13]), the IC50 is not below 221 µM.
For TSPRMLTPI, the IC50 is 3.05 µM with HLA-A*24:02 (setting [13]), not below 260 µM with HLA-B*07:02 (setting [13]) and not below 684 µM with HLA-A*02:01 [9] (setting [13]).
EELKSLFNTI: the Kd with HLA-A*02:03 [11] worked out at 1.54 µM; with HLA-A*68:02 [1] it was 1.18 µM.

As a reminder, the Kd is the concentration at which binding is half-saturated. The term IC50 denotes the concentration needed to halve the response being measured. A lower IC50 goes with higher potency.
